In patent US20240192215A1:

Tests used:
[1] = target: T1, Peptide_044 (human); experiment: peptide microarray, 1 ug/mL
T1 sequence (peptide): FSATWCGPCKMIKPF

[2] = target: T2, Peptide_096 (human); experiment: peptide microarray, 1 ug/mL
T2 sequence (peptide): FFKKGQKVGEFSGAN

[3] = target: T3, Peptide_097 (human); experiment: peptide microarray, 1 ug/mL
T3 sequence (peptide): FKKGQKVGEFSGANK

[4] = target: T1, Peptide_044 (human); experiment: peptide microarray, 5 ug/mL
[5] = target: T2, Peptide_096 (human); experiment: peptide microarray, 5 ug/mL
[6] = target: T3, Peptide_097 (human); experiment: peptide microarray, 5 ug/mL
[7] = target: T1, Peptide_044 (human); experiment: peptide microarray, 0.2 ug/mL
[8] = target: T2, Peptide_096 (human); experiment: peptide microarray, 0.2 ug/mL
[9] = target: T3, Peptide_097 (human); experiment: peptide microarray, 0.2 ug/mL
[10] = target: T1, Peptide_044 (human); experiment: peptide microarray, 0.04 ug/mL
[11] = target: T2, Peptide_096 (human); experiment: peptide microarray, 0.04 ug/mL
[12] = target: T3, Peptide_097 (human); experiment: peptide microarray, 0.04 ug/mL
[13] = target: T1, Peptide_044 (human); experiment: peptide microarray, 0.0016 ug/mL
[14] = target: T2, Peptide_096 (human); experiment: peptide microarray, 0.0016 ug/mL
[15] = target: T3, Peptide_097 (human); experiment: peptide microarray, 0.0016 ug/mL
[16] = target: T1, Peptide_044 (human); experiment: peptide microarray, head 0.08 ug (text 0.008 ug/mL)
[17] = target: T2, Peptide_096 (human); experiment: as above
[18] = target: T3, Peptide_097 (human); experiment: as above
[19] = target: TRX-N-His-M1 (human) (UniProt P10599); experiment: ELISA, mutant M1 coated at 2 ug/mL, antibody concentration not given, anti-mouse Fc-HRP (Example 16)
TRX-N-His-M1 (human), sequence (P10599 whole entry): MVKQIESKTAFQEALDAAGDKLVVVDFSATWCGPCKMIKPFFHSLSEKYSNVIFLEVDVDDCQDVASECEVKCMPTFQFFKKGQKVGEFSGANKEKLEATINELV

[20] = target: TRX-N-His-M2 (human) (UniProt P10599); experiment: ELISA, mutant M2 coated at 2 ug/mL, antibody concentration not given, anti-mouse Fc-HRP (Example 16)
TRX-N-His-M2 (human), sequence (P10599 whole entry): as above

[21] = target: TRX-N-His-M4 (human) (UniProt P10599); experiment: ELISA, mutant M4 coated at 2 ug/mL, antibody concentration not given, anti-mouse Fc-HRP (Example 16)
TRX-N-His-M4 (human), sequence (P10599 whole entry): as above

[22] = target: T4, M7; experiment: ELISA, mutant M7 coated at 2 ug/mL, antibody concentration not given, anti-mouse Fc-HRP (Example 16)
T4 sequence (single chain): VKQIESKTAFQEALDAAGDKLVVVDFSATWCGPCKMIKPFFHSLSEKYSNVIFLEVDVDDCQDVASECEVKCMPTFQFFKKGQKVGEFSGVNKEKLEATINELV

B1: monoclonal antibody B264 (antibody, mouse IgG1, kappa, V domains shown)
VH: QVQLQQSGAELARPGASVKMSCKASGYTFTSYTMHWVKQRPGQGLEWIGYINPTSDYTNYNQKFKDKATLTADKSSSTAYMQLSSLTSEDSAVYFCASEGGFLYYFDYWGQGTTLTVSS
VL: DVLMTQTPLSLPVSLGDQASISCRSSQSIVHSNGNTYLEWYLQKPGQSPKLLIYKVSNRFSGVPDRFSGSGSGTDFTLKISRVEAEDLGVYYCFQGSHVPYTFGGGTKLEIKR
How did the signal (blank-control = 1) [1] turn out when B1 was run?
Its signal (blank-control = 1) is 2.93.

And the signal (blank-control = 1) [2]?
The signal (blank-control = 1) was 2.04.

And the signal (blank-control = 1) [3]?
The signal (blank-control = 1) was 2.18.

What about the signal (blank-control = 1) [4] of the same binder?
Its signal (blank-control = 1) is 3.33.

What about the signal (blank-control = 1) [5] of the same binder?
Its signal (blank-control = 1) is 1.9.

And the signal (blank-control = 1) [6]?
Its signal (blank-control = 1) is 2.26.

What about the signal (blank-control = 1) [7] of the same binder?
The signal (blank-control = 1) was 2.3.

What about the signal (blank-control = 1) [8] of the same binder?
The signal (blank-control = 1) was 1.37.

What about the signal (blank-control = 1) [9] of the same binder?
The signal (blank-control = 1) was 1.68.

And the signal (blank-control = 1) [10]?
Its signal (blank-control = 1) is 2.12.

And the signal (blank-control = 1) [11]?
The signal (blank-control = 1) was 1.44.

What about the signal (blank-control = 1) [12] of the same binder?
Its signal (blank-control = 1) is 1.31.

And the signal (blank-control = 1) [13]?
Its signal (blank-control = 1) is 1.6.

What about the signal (blank-control = 1) [14] of the same binder?
The signal (blank-control = 1) was 0.82.

What about the signal (blank-control = 1) [15] of the same binder?
Its signal (blank-control = 1) is 0.91.

What about the signal (blank-control = 1) [16] of the same binder?
The signal (blank-control = 1) was 1.87.

And the signal (blank-control = 1) [17]?
Its signal (blank-control = 1) is 0.94.

And the signal (blank-control = 1) [18]?
Its signal (blank-control = 1) is 1.08.

What about the OD 490 nm [19] of the same binder?
Its OD 490 nm is 0.0424.

And the OD 490 nm [20]?
Its OD 490 nm is 0.094.

What about the OD 490 nm [21] of the same binder?
The OD 490 nm was 0.181.

What about the OD 490 nm [22] of the same binder?
Its OD 490 nm is 0.761.
